Data set [1] in a line: folding stability dG unfold from trypsin proteolysis; higher = more stable. A digest of the protocol: (§1)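 Only designs with AlphaFold2 dimer inter-PAE above 15 were retained; each was a mini-protein under 80 residues with no cysteine, in a PA-tagged cDNA display construct. After digestion with trypsin and chymotrypsin and sequencing, K50 was inferred by Bayesian fitting of counts, and unfolding free energy was derived per protease or combined against a sequence-predicted unfolded-state K50 and a shared folded-state K50.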

Data set [2] in a line: folding stability dG unfold from chymotrypsin proteolysis; higher = more stable. A digest of the protocol:
as §1

A short description of data set [3]: folding stability dG unfold (combined trypsin and chymotrypsin); higher = more stable. A digest of the protocol: as §1

± gives the half width of the 95% confidence interval.

Turning to “SAGGSAGGMIIRVEFKNGEVKTFVVKSPEEAKKKLAESLGLKEDEIPLDEIKSVEILNLDEALSSAGGSAGG [r6_586_TrMRF]”, the entries for the “folding stability dG unfold” value in data set [1], in data set [2] and in data set [3] were 3.35 ± 0.1 kcal/mol, 4.1 ± 0.073 kcal/mol and 3.91 ± 0.073 kcal/mol, respectively.
The like results for “SAGGSAGGMIKIKLKNGEVLYIDPKKPVLYFNKEKKIIPVKKDKIEKALKELEKKGFKIEKIDPSAGGSAGG [r6_337_TrMRF]” were, in that order, -0.249 ± 0.28 kcal/mol, -0.0347 ± 0.31 kcal/mol and 0.0657 ± 0.15 kcal/mol.
The like results for “SAGGSAGGMIPLEEIEIEEITEETLPSNEKVITVKVKFPDGTKTLTFEPNEGEEKILEKIKELTSAGGSAGG [r6_233_JUSTAS]” were, in that order, 0.544 ± 0.042 kcal/mol, 0.727 ± 0.034 kcal/mol and 0.734 ± 0.082 kcal/mol.
In the case of “SAGGSAGGMIRFDTPEEVEAALKALRAKLPPGATLVIEIEVDGKLVRVEFKDGKITKVEVRELPSAGGSAGG [r6_288_TrROS_Hall]”, the figures for the “folding stability dG unfold” value in data set [1], in data set [2] and in data set [3] were 3.02 ± 0.16 kcal/mol, 3.67 ± 0.12 kcal/mol and 3.57 ± 0.2 kcal/mol, respectively.
The matching figures for “SAGGSAGGMITVNSEEEAKELEAELKEKGYKAEVTPKTGKNGPYYLITLTPIPKKKKSTKKSKLSAGGSAGG [r6_182_JUSTAS]”: 1.16 ± 0.095 kcal/mol, 1.03 ± 0.11 kcal/mol and 1.13 ± 0.21 kcal/mol.
As for “SAGGSAGGMKAVITQPPDGTATVEIYDETTGKTTTKTIPADQPEEIEALIAGKVDEVTTTPAPASAGGSAGG [r6_640_JUSTAS]”, the “folding stability dG unfold” value in data set [1] is 2.09 ± 0.12 kcal/mol; in data set [2] it was 1.35 ± 0.1 kcal/mol; in data set [3], 1.76 ± 0.095 kcal/mol.
The matching figures for “SAGGSAGGMKELAEKLGWEYEEKEEKLPSGKKILIATFTSPDGSKVIITFDPSTNKIISEEVFESAGGSAGG [r6_982_JUSTAS]”: 4.28 ± 0.4 kcal/mol, 3.71 ± 0.23 kcal/mol and 4.03 ± 0.25 kcal/mol.
The like results for “SAGGSAGGMKIEIIEEKDGYIVLRVSPEDLEALEKLGFEIVSVEEVEGELYIVIKVSPEALKALSAGGSAGG [r6_108_TrROS_Hall]” were, in that order, 3.58 ± 0.095 kcal/mol, 3.5 ± 0.037 kcal/mol and 3.55 ± 0.066 kcal/mol.
In the case of “SAGGSAGGMKIRIEIEMTPEEVEALREELEKAGYRVEVERREDGRVRVTIEIELPPPPPPPEEESAGGSAGG [r6_8_TrROS_Hall]”, the entries for the “folding stability dG unfold” value in data set [1], in data set [2] and in data set [3] were 3.08 ± 0.24 kcal/mol, 3.75 ± 0.13 kcal/mol and 3.46 ± 0.2 kcal/mol, respectively.
The like results for “SAGGSAGGMKITTPDGKEITFPPKDETVTLTITVKLEDGTTVTIEIKFNKNGEIVEIKISIEKKSAGGSAGG [r6_530_TrROS_Hall]” were, in that order, 1.52 ± 0.07 kcal/mol, 2.43 ± 0.061 kcal/mol and 1.99 ± 0.17 kcal/mol.
The matching figures for “SAGGSAGGMKITVEEVKVEKKEDGSYRVRIRLKNGEVLELEFESLEEALAAAKKLGAEITEIEPSAGGSAGG [r6_84_TrROS_Hall]”: 3.12 ± 0.058 kcal/mol, 3.54 ± 0.038 kcal/mol and 3.35 ± 0.04 kcal/mol.
The like results for “SAGGSAGGMKIVVEEVDEEKGYVRIRIEDPETKEEKEIVVKVKTPEEAEALAKKLAEAGYEVETSAGGSAGG [r6_796_TrROS_Hall]” were, in that order, 1.27 ± 0.045 kcal/mol, 1.79 ± 0.028 kcal/mol and 1.61 ± 0.087 kcal/mol.
With “SAGGSAGGMKPGEEKEITLPDGSKIKVRIKDGKLEIEFENGERKEIEIKPGEKIEIKLPKGVKPSAGGSAGG [r6_970_TrROS_Hall]”, the “folding stability dG unfold” value in data set [1] was found to be 1.4 ± 0.076 kcal/mol; in data set [2], 2.05 ± 0.085 kcal/mol; in data set [3], 1.81 ± 0.083 kcal/mol.
For “SAGGSAGGMKPISRSTYTNPLNGTTITVTKYPETGEYVITLPDGTTYTVPKSVPITSVEEAIKNSAGGSAGG [r6_72_JUSTAS]”, the “folding stability dG unfold” value was determined as 0.32 ± 0.066 kcal/mol in data set [1], 1.32 ± 0.15 kcal/mol in data set [2] and 0.977 ± 0.096 kcal/mol in data set [3].
Turning to “SAGGSAGGMKQYIVTVTLKSPDGTEHTIELETESLDEVKEKLKNLPDPNLELVELKVVPKEELASAGGSAGG [r6_297_JUSTAS]”, the “folding stability dG unfold” value in data set [1] was 2.39 ± 0.098 kcal/mol; in data set [2], 2.21 ± 0.035 kcal/mol; in data set [3], 2.25 ± 0.13 kcal/mol.
The like results for “SAGGSAGGMKVKIVSFDPENQEVVIYDEKTGKEIVVKAKSVEELKAALEKLGLEVEVEVLPPEESAGGSAGG [r6_27_TrROS_Hall]” were, in that order, 2.99 ± 0.43 kcal/mol, 3.19 ± 0.26 kcal/mol and 3.3 ± 0.39 kcal/mol.
The matching figures for “SAGGSAGGMKVTIEKENGKYRIKVEIEKNGKKIEIEIDMSVEELKKELEKKLNIKIKKVEIEPVSAGGSAGG [r6_762_TrROS_Hall]”: 1.7 ± 0.2 kcal/mol, 1.03 ± 0.53 kcal/mol and 1.5 ± 0.66 kcal/mol.
As for “SAGGSAGGMKVTISSKGLPATITYYDPRNGTSTTVPINGDPEAAVAALKEATGLDVTDVTVTVESAGGSAGG [r6_763_JUSTAS]”, the results for the “folding stability dG unfold” value in data set [1], in data set [2] and in data set [3] were 0.71 ± 0.04 kcal/mol, 0.52 ± 0.11 kcal/mol and 0.617 ± 0.12 kcal/mol, respectively.
The like results for “SAGGSAGGMKVTSRETTEITVDTSTGKVTITTTTTLSNGTVVPVGTTTVAISELPEELLSEIESSAGGSAGG [r6_469_JUSTAS]” were, in that order, 0.308 ± 0.026 kcal/mol, 0.886 ± 0.019 kcal/mol and 0.707 ± 0.042 kcal/mol.
The like results for “SAGGSAGGMLEITVPSRREPDSLEVEITITDPSSNTTTTLRRRFPPGDETSPEEIAEKIAAELSSAGGSAGG [r6_234_JUSTAS]” were, in that order, 0.677 ± 0.13 kcal/mol, 0.332 ± 0.23 kcal/mol and 0.505 ± 0.28 kcal/mol.
The like results for “SAGGSAGGMLRIKTKDGKEIEITDDEVRIRFADGKKTVTVPAEKLKEALEAAEKAGMEIVEIEPSAGGSAGG [r6_337_TrROS_Hall]” were, in that order, 0.00945 ± 0.21 kcal/mol, 1.9 ± 0.057 kcal/mol and 1.44 ± 0.16 kcal/mol.
Turning to “SAGGSAGGMLSPEEAEAIARALEAAGRPVTELVVTEHPEGTATVTLTVRYPDGSTETLPLSLPASAGGSAGG [r6_762_JUSTAS]”, the “folding stability dG unfold” value in data set [1] worked out at 1.27 ± 0.035 kcal/mol; in data set [2], 0.782 ± 0.1 kcal/mol; in data set [3], 1.05 ± 0.2 kcal/mol.
The like results for “SAGGSAGGMLTTQETSSDPATNLTTTTTTLTEKDASGNLVPLETTVTTTTSPPAPSTTAPTYAASAGGSAGG [r6_901_JUSTAS]” were, in that order, 1.89 ± 0.061 kcal/mol, 0.432 ± 0.024 kcal/mol and 1.29 ± 0.089 kcal/mol.
The like results for “SAGGSAGGMMYVVKITNEDGETLTIEAESEEEALEAARALAEETGREITRIEVRRLSKEEEEEESAGGSAGG [r6_162_TrROS_Hall]” were, in that order, 2.28 ± 0.06 kcal/mol, 2.787 ± 0.021 kcal/mol and 2.64 ± 0.064 kcal/mol.
The matching figures for “SAGGSAGGMPIPPEVTEISFSKLPNGTYRLTITTKDGKTLTDVTFPPDLDPETAVEAAIATVAASAGGSAGG [r6_436_JUSTAS]”: 1.45 ± 0.028 kcal/mol, 1.48 ± 0.06 kcal/mol and 1.5 ± 0.053 kcal/mol.
“SAGGSAGGMPLLPLNKEVRVLSVSYIPPNDVVVVRVKGLDNVESTILIPVSLAKNIPISPDSTLSAGGSAGG [r6_910_TrMRF]”: the “folding stability dG unfold” value in data set [1] is 0.944 ± 0.024 kcal/mol; in data set [2] it was 0.44 ± 0.059 kcal/mol; in data set [3] it was 0.733 ± 0.056 kcal/mol.
The matching figures for “SAGGSAGGMPPELSEEEVVRRAVERAVRELGVPLEELPPDWRVDARVERVGDEWLVEVDIELPASAGGSAGG [r6_740_TrMRF]”: 1.33 ± 0.037 kcal/mol, 1.68 ± 0.074 kcal/mol and 1.57 ± 0.083 kcal/mol.
The like results for “SAGGSAGGMPTLVVLREVAEKLEEGQRVRVRFRIPGTDEWVEAEVPINDPELVINFENPEVEEASAGGSAGG [r6_401_TrMRF]” were, in that order, 1.06 ± 0.042 kcal/mol, 1.48 ± 0.097 kcal/mol and 1.33 ± 0.12 kcal/mol.
The like results for “SAGGSAGGMPVTPEEARAIAEELRAELGATTVEVEVSPDGRTVTITITSSEDGKVLTRTIEFEASAGGSAGG [r6_550_JUSTAS]” were, in that order, 2.25 ± 0.091 kcal/mol, 2.33 ± 0.036 kcal/mol and 2.29 ± 0.059 kcal/mol.
As to “SAGGSAGGMRVRLTFPDGSVVELDLSSLPFSPEEVERAGEEELRALLEEAYPDREIELERVPEPSAGGSAGG [r6_165_JUSTAS]”, the “folding stability dG unfold” value in data set [1] amounted to 2.13 ± 0.056 kcal/mol; in data set [2] it was 2.93 ± 0.032 kcal/mol; in data set [3], 2.63 ± 0.051 kcal/mol.
The matching figures for “SAGGSAGGMRYVTVTVTVPSNGKKYTYTKEIAPDEVFNISEAELAAEFGYPDVVVTVSESPIEDSAGGSAGG [r6_722_JUSTAS]”: 2.19 ± 0.074 kcal/mol, 3.39 ± 0.022 kcal/mol and 3.08 ± 0.076 kcal/mol.
The like results for “SAGGSAGGMSIKVEVPGPYTVKIYRPDGKPIGEIEGEPGSVIEIDLNVPPGEAKNLIIEVYPTDSAGGSAGG [r6_471_TrMRF]” were, in that order, 1.61 ± 0.074 kcal/mol, 2.58 ± 0.067 kcal/mol and 2.2 ± 0.24 kcal/mol.
The like results for “SAGGSAGGMSITINLPNGVTLTITTGDNDVYPITITYPGGETKTLTVTEPLSSISQVISNIVNSSAGGSAGG [r6_27_JUSTAS]” were, in that order, 3.38 ± 0.069 kcal/mol, 3.28 ± 0.035 kcal/mol and 3.33 ± 0.042 kcal/mol.
With “SAGGSAGGMTFKDPNSNTTASVTEVTPTSVTVTYTLSDGTTRTVTVPTSLVTPDSTVPFTVTSSSAGGSAGG [r6_152_JUSTAS]”, the “folding stability dG unfold” value is 0.983 ± 0.032 kcal/mol in data set [1], 0.789 ± 0.16 kcal/mol in data set [2] and 0.892 ± 0.064 kcal/mol in data set [3].
Consider “SAGGSAGGMTIKIEVNGKIIEIELPEGIKEITKIEIKKDGTITLYIKDNKKKITIKLDKLKKLKSAGGSAGG [r6_369_TrROS_Hall]”, for which the “folding stability dG unfold” value in data set [1] was 1.2 ± 0.09 kcal/mol; in data set [2], 3.01 ± 0.1 kcal/mol; in data set [3], 2.34 ± 0.27 kcal/mol.
In the case of “SAGGSAGGMTITISTGSSGLTVNITLTPPTGPPVTVTISFDPSELEEFLKELPDYEIESITVEGSAGGSAGG [r6_879_JUSTAS]”, the “folding stability dG unfold” value in data set [1] was determined as 2.79 ± 0.17 kcal/mol; in data set [2], 2.73 ± 0.15 kcal/mol; in data set [3] it was 2.8 ± 0.13 kcal/mol.

Values taken from the supplement of paper PMC12764529.
